The source of these data is PMC7491320, “Pdc2/Pat1 increases the range of decay factors and RNA bound by the Lsm1–7 complex”.

Data set [1] deals with T1, PatMC (Pat1/Pdc2 middle and C-terminal domains);Lsm1-7 complex (Schizosaccharomyces …, UniProt O42958;P87173;O94408;Q9Y7M4;O14352;O42978;Q9UUI1;O74499 …, |). Put plainly: fluorescence polarization; 5 mM Mg2+; Hill ~1; affinity not affected by PatMC; FP: 200 mM NaCl, 20 mM HEPES pH 7.0, 1 mM DTT, 5 mM MgCl2, 0.3 ug/uL acetylated BSA, 500 pM 5'-FAM RNA, 22 C. The settings on record: protein: recombinant;recombinant; tags: none stated in coexpressed complex;N-terminal His6-TEV on Lsm1, TEV-treated; copies: 1;1;1;1;1;1;1;1; label: 5'-FAM.

The target in data set [2] is T2, Lsm1-7 complex (Schizosaccharomyces pombe, UniProt P87173;O94408;Q9Y7M4;O14352;O42978;Q9UUI1;O74499 …). Put plainly: fluorescence polarization; 5 mM Mg2+; strongly favored; FP: 200 mM NaCl, 20 mM HEPES pH 7.0, 1 mM DTT, 5 mM MgCl2, 0.3 ug/uL acetylated BSA, 500 pM 5'-FAM RNA, 22 C. Conditions: protein: recombinant; tags: N-terminal His6-TEV on Lsm1, TEV-treated; copies: 1;1;1;1;1;1;1; label: 5'-FAM. (In fluorescence polarisation assays a small probe gives low polarisation when free and higher when bound to something large.)

Data set [3] deals with T1, PatMC (Pat1/Pdc2 middle and C-terminal …). Briefly: SEC-MALS; stoichiometric RNA; dimeric and tetrameric assemblies; FP: 200 mM NaCl, 20 mM HEPES pH 7.0, 1 mM DTT, 5 mM MgCl2, 0.3 ug/uL acetylated BSA, 500 pM 5'-FAM RNA, 22 C. The settings on record: protein: recombinant;recombinant; tags: none stated in coexpressed complex;N-terminal His6-TEV on Lsm1, TEV-treated; copies: 1;1;1;1;1;1;1;1. (In gel filtration, larger molecules generally elute earlier.)

In data set [4] the target is T2, Lsm1-7 complex. Put plainly: SEC-MALS; monomeric complex; FP: 200 mM NaCl, 20 mM HEPES pH 7.0, 1 mM DTT, 5 mM MgCl2, 0.3 ug/uL acetylated BSA, 500 pM 5'-FAM RNA, 22 C. The settings on record: protein: recombinant; tags: N-terminal His6-TEV on Lsm1, TEV-treated; copies: 1;1;1;1;1;1;1.

On to UUUUUUUUUUUUUUU (ssRNA) [U15 (FAM)], for which the binding result (in data set [1]; with Lsm1-7 complex [2]) was “binds” each time.
UUUUUUUUUUUUUUU (ssRNA) [U15 (SEC-MALS)]: the binding result (in data set [3]; with Lsm1-7 complex [4]) was “binds” in each case.
